# Experimental data published in US20100098682A1 (published 2010).
# B1: myc-tagged BRI2 C-terminal deletion, first 80 amino acids (other)
# chain: MVKVTFNSALAQKEAKKDEPKSGEEALIIPPDAVAVDCKDPDDVVPVGQRRAWCWCMCFGLAFMLAGVILGGAYLYKYFA
# notes: Expressed in γ30 cells; also called BRI2 1-80; not shown: myc tag
# B2: myc-tagged BRI2 C-terminal deletion, first 93 amino acids (other)
# chain: MVKVTFNSALAQKEAKKDEPKSGEEALIIPPDAVAVDCKDPDDVVPVGQRRAWCWCMCFGLAFMLAGVILGGAYLYKYFALQPDDVYYCGIKY
# notes: Expressed in γ30 cells; also called BRI2 1-93; not shown: myc tag
# Tests used:
# [1] = molecular target: T1, C99, COOH-terminal fragment of 99 amino acids of APP (human, UniProt P05067 672-770); experiment: anti-myc immunoprecipitation from γ30 cell lysates, western blot
# T1 construct: domain: COOH-terminal fragment of 99 amino acids (C99); Produced in cells from APP by processing; also endogenous C99 of human brain
# Description: (§1) FIG. 4 is photographs of western blots establishing that the first 102 amino acids of BRI2 are necessary to inhibit the efficient cleavage of C99 and that the same region is necessary for the binding of BRI2 to C99 of APP. […] HC indicates the heavy chain of myc antibody used in the immunoprecipitation.
# (§2) Immunoprecipitation and western blot. Unless otherwise noted, all immunoprecipitation procedures were performed at 4° C. The transfected cells were lysed in Buffer A [20 mM Hepes/NaOH pH 7.4, 1 mM EDTA, 1 mM DTT, 150 mM NaCl, 0.5% (w/v) TritonX-100] containing 10% (v/v) Glycerol for 30 min, and the lysates were cleared at 20,000 g for 10 min. For FLAG immunoprecipitation, the cleared lysates were mixed with 20 μl of FLAG-M2 beads (Sigma) for 2 hours, and washed three times with Buffer A. The precipitates were boiled in 60 μl of 2×SDS sample buffer and subjected to western blot. For other immunoprecipitation, the cleared lysates were incubated with antibodies for one hour, and mixed with 20 μl of protein A/G beads (Pierce), washed and processed as above. Human brains (a generous gift of Dr. Peter Davies) were homogenized in Buffer A containing 10% (v/v) Glycerol using a Dounce homogenizer. The proteins were extracted overnight with the protein concentration at 5 mg/ml. Extracted proteins were cleared at 20,000 g for one hour. The supernatants were incubated with the indicated antibodies and protein A/G beads blocked with PBS containing 1% (w/v) BSA. Precipitants were washed and processed as described above.
# [2] = molecular target: T2, Amyloid precursor protein (APP), full length (human, UniProt P05067-4 18-695); experiment: as above
# T2 construct: whole, on cells; Used for transfected APP (HeLa), stably expressed APP (HEK293APP, γ30 cells) and endogenous APP of human brain homogenates; also called full length APP; mature, glycosylated APP
# Description: as §1, §2
Binder,binding result [1],binding result [2]
B1,no binding,no binding
B2,no binding,no binding
